Settings in all cases: source organism: Hepatitis B virus
One assay has as its target HLA-A*11:01. Nature of the assay: IEDB peptide-MHC binding, cellular MHC/competitive/fluorescence; ≥ and ≤ were set here for values at or beyond the usual limits of such assays.
In a further assay the target is HLA-A*68:01. The assay is described as above.
Assay [1] addresses HLA-A*02:06. Put plainly: IEDB peptide-MHC binding, purified MHC/competitive/radioactivity; ≥ and ≤ were set here for values at or beyond the usual limits of such assays.
Assay [2] concerns the target HLA-A*68:02. The description is as above.
Assay [3] has as its target HLA-A*31:01. Described as above.
Assay [4] deals with HLA-A*03:01. The assay is described as above.
The target of assay [5] is HLA-A*31:01. Put plainly: IEDB peptide-MHC binding, cellular MHC/competitive/fluorescence; ≥ and ≤ were set here for values at or beyond the usual limits of such assays.
Assay [6] addresses HLA-A*02:03. Nature of the assay: IEDB peptide-MHC binding, purified MHC/competitive/radioactivity; ≥ and ≤ were set here for values at or beyond the usual limits of such assays.
Assay [7] addresses HLA-A*02:01. The assay is described as above.
Assay [8] addresses HLA-A*02:02. The assay is described as above.
The target in assay [9] is HLA-A*68:02. Nature of the assay: IEDB peptide-MHC binding, cellular MHC/competitive/fluorescence; ≥ and ≤ were set here for values at or beyond the usual limits of such assays.
Assay [10] addresses HLA-A*03:01. The description is as above.
The target of assay [11] is HLA-A*02:06. The assay is described as above.
The target in assay [12] is HLA-A*02:01. Described as above.
Assay [13] concerns the target HLA-A*02:03. The description is as above.
Assay [14] concerns the target HLA-A*02:02. The assay is described as above.

This passage reports IC50 results from the Immune Epitope Database (IEDB).

A word on the IC50: it is the midpoint of a concentration-inhibition curve. With LLDYQGMLPV, the IC50 with HLA-A*11:01 is 28.5 µM; in the assay with HLA-A*68:01, not below 70 µM; in the assay with HLA-A*02:06 [1], 0.0026 µM; with HLA-A*68:02 [2] it was 0.626 µM; in the assay with HLA-A*31:01 [3], 4.01 µM; with HLA-A*03:01 [4], 0.063 µM.

Turning to FLAPLPIHTA, the IC50 with HLA-A*31:01 [5] is not below 70 µM; with HLA-A*11:01, 43.2 µM; with HLA-A*68:01, 35.5 µM; in the assay with HLA-A*02:03 [6], 0.00028 µM; with HLA-A*02:06 [1], 0.013 µM; with HLA-A*68:02 [2] it was 0.971 µM. For the same sequence, the results for the IC50 with HLA-A*03:01 [4], with HLA-A*02:01 [7] and with HLA-A*02:02 [8] were 4.09 µM, 0.0013 µM and 0.049 nM, respectively.

For ILCWGELMTL, the IC50 in the assay with HLA-A*68:02 [9] was 7.82 µM; with HLA-A*03:01 [10], 9.08 µM; with HLA-A*11:01, not below 70 µM; with HLA-A*68:01 it was 43.9 µM; with HLA-A*02:03 [6], 0.0053 µM; with HLA-A*02:06 [1], 0.007 µM. For the same sequence, the IC50 with HLA-A*31:01 [3] came out at 1.86 µM; in the assay with HLA-A*02:02 [8], 6.7 nM.

On to LLPIFFCLWV, for which the IC50 is not below 70 µM with HLA-A*68:02 [9]; 6.23 µM in the assay with HLA-A*31:01 [5]; not below 70 µM in the assay with HLA-A*11:01; 51 µM in the assay with HLA-A*68:01; 0.015 µM with HLA-A*02:03 [6]; 0.0023 µM in the assay with HLA-A*02:06 [1]. In addition, the IC50 with HLA-A*03:01 [4] stood at 1.33 µM.

RVRGLYFPA: the IC50 in the assay with HLA-A*02:06 [11] is 8.24 µM; with HLA-A*68:02 [9], 17.2 µM; in the assay with HLA-A*03:01 [10], not below 70 µM; with HLA-A*11:01, not below 70 µM; in the assay with HLA-A*02:01 [12], 18 µM; with HLA-A*68:01 it was not below 70 µM. Besides, the IC50 worked out at 3.96 µM with HLA-A*02:03 [6], 0.024 µM in the assay with HLA-A*31:01 [3] and 3120 nM with HLA-A*02:02 [8].

For KQYLNLYPV, the IC50 with HLA-A*68:02 [9] is 36.8 µM; with HLA-A*03:01 [10], not below 70 µM; with HLA-A*11:01 it was 30.4 µM; in the assay with HLA-A*68:01, not below 70 µM; in the assay with HLA-A*02:03 [6], 0.0045 µM; in the assay with HLA-A*02:06 [1], 0.011 µM. Further, the IC50 with HLA-A*31:01 [3] is 0.189 µM; in the assay with HLA-A*02:01 [7], 0.138 µM; in the assay with HLA-A*02:02 [8], 224 nM.

As for ILRGTSFVYV, the IC50 with HLA-A*68:02 [9] was 37.2 µM; with HLA-A*11:01, not below 70 µM; with HLA-A*68:01, not below 70 µM; in the assay with HLA-A*02:03 [6], 0.0022 µM; with HLA-A*02:06 [1] it was 0.083 µM; with HLA-A*31:01 [3], 1.36 µM. Also, the IC50 in the assay with HLA-A*03:01 [4] stood at 4.77 µM; in the assay with HLA-A*02:02 [8], 3.9 nM.

For the sequence HLYSHPIIL, the IC50 with HLA-A*02:06 [11] is 9.45 µM; with HLA-A*68:02 [9], 22.7 µM; with HLA-A*31:01 [5], 46 µM; in the assay with HLA-A*11:01, not below 70 µM; with HLA-A*68:01 it was not below 70 µM; with HLA-A*02:03 [6], 0.018 µM. Besides, the IC50 with HLA-A*03:01 [4] is 0.171 µM; in the assay with HLA-A*02:02 [8], 81 nM.

For the sequence LLWFHISCL, the IC50 with HLA-A*68:02 [9] was not below 70 µM; with HLA-A*31:01 [5], 8.85 µM; in the assay with HLA-A*11:01, 32.5 µM; in the assay with HLA-A*68:01, not below 70 µM; in the assay with HLA-A*02:06 [1], 0.382 µM; with HLA-A*03:01 [4], 3.26 µM. The IC50 in the assay with HLA-A*02:02 [8] was determined as 307 nM.

Turning to ILLLCLIFL, the IC50 amounted to 12.1 µM in the assay with HLA-A*68:02 [9]; 13.8 µM with HLA-A*11:01; 30.3 µM with HLA-A*68:01; 1.53 µM in the assay with HLA-A*02:03 [6]; 0.145 µM with HLA-A*02:06 [1]; 1.48 µM with HLA-A*31:01 [3]. The IC50 with HLA-A*03:01 [4] amounted to 0.624 µM; with HLA-A*02:02 [8], 1120 nM.

As for CLRRFIIFL, the half-inhibitory concentration (IC50) was 14.6 µM with HLA-A*02:03 [13]; 10.1 µM in the assay with HLA-A*02:06 [11]; 48.8 µM with HLA-A*68:02 [9]; 6.65 µM in the assay with HLA-A*31:01 [5]; not below 70 µM in the assay with HLA-A*11:01; not below 70 µM in the assay with HLA-A*68:01. In addition, the IC50 stood at 7.11 µM with HLA-A*02:02 [14], 2.63 µM with HLA-A*03:01 [4] and 1.39 µM with HLA-A*02:01 [7].

Consider SLYADSPSV, for which the IC50 was 13.7 µM with HLA-A*68:02 [9]; 14.6 µM with HLA-A*31:01 [5]; not below 70 µM with HLA-A*11:01; not below 70 µM with HLA-A*68:01; 0.0034 µM with HLA-A*02:03 [6]; 0.883 µM with HLA-A*02:06 [1]. Also, the IC50 was 2.02 µM in the assay with HLA-A*03:01 [4] and 12 nM with HLA-A*02:02 [8].

For the sequence FLLSLGIHL, the IC50 with HLA-A*68:02 [9] worked out at 10.5 µM; in the assay with HLA-A*31:01 [5] it was 6.79 µM; with HLA-A*68:01 it was 15.7 µM; with HLA-A*03:01 [4], 2.53 µM.
